This series concerns the target FinO (Salmonella enterica SL1344 (virulence …, UniProt A0A0H3P176 1-187)). Put plainly: EMSA; yeast RNA 1 ug/reaction; apparent Kd; 25 mM Tris-HCl pH 7.4, 150 mM NaCl, 1 mM MgCl2, 1 ug yeast RNA/reaction, 4 nM labeled RNA, 37 C, 1 h (EMSA) or 30 min (filter binding). To be noted: protein: recombinant, tags: His6-3C (expression plasmid pMiG007-His6-3C-FinO), label: 32P (5' end; 3' pCp alternative for probing). (A gel shift assay detects complexes by their altered migration in electrophoresis.)

B1: FinP (structured_RNA)
RNA: GGGACACAUAGGAACCUCCUCAAAGGAUUCUAUGGACAGUCGAUGCAGGGAGUGACAGCUCCCUGUAUCGGCGAUUUU
With B1, for the setting “two stem-loops (SLI, SLII) with 3' U tail”, the Kd is about 500 nM.

B2: RepX (structured_RNA)
RNA: GGGCAUUGAUUGCCUCCUUUGCAGGCAGUUGGUGGUUAGGCGCUGGCGGGGUCACUACCCCCGCCCUGCGCCGCUCU
For the molecule B2, where the note is “FinP-like stem-loops, short 3' tail”, the Kd was about 500 nM.

Values taken from article PMC8136791, “In vivo targets of Salmonella FinO include a FinP-like small RNA controlling copy number of a cohabitating plasmid”.
